Assay results reported in patent US20020102234A1.

Molecular target: human IL-1R1 (IL-1 receptor type I), full length, expressed in transfected Jurkat E6.1 cells (human) (UniProt P14778)
Test: cell-based or functional assay

Sequence of UniProt P14778 (P14778 18-569): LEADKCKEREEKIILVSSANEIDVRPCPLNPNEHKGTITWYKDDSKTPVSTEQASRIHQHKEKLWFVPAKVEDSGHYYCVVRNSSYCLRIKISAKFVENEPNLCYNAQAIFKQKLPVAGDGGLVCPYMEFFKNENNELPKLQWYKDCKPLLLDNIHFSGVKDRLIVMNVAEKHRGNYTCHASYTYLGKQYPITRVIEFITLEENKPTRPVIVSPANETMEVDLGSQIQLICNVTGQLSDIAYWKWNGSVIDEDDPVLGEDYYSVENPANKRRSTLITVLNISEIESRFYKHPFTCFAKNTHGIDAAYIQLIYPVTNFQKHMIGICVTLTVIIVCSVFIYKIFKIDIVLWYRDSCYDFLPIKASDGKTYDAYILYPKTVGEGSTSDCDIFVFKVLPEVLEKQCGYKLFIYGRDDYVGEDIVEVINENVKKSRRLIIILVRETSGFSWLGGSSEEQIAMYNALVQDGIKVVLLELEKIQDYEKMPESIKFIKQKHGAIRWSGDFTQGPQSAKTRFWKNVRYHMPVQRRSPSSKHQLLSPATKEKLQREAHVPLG

recombinant human IL-1RA (IL-1 receptor antagonist) (from UniProt P18510 26-177) (ligand)
excess over IL-1α giving 50% inhibition of the NFκB reporter response (fold excess over IL-1α): 1000
